Experimental data from PMC10992996, “Human CRB1 and CRB2 form homo- and heteromeric protein complexes in the retina” (Life Science Alliance, 2024).

Target: T1, CRB1-FLAG p.C480R (human, UniProt P82279 26-1406, p.C480R)
T1 construct: Crumbs homolog 1, canonical form, human, cDNA NM_202153 as printed, with a patient missense mutation; Made by site-directed mutagenesis of m1; also called CRB1 p.C480R; CRB1-FLAG MT; source: HEK293T, transfected, in lysate; not shown: Strep-Strep-FLAG, N-terminal, kept
T1 sequence (looked up): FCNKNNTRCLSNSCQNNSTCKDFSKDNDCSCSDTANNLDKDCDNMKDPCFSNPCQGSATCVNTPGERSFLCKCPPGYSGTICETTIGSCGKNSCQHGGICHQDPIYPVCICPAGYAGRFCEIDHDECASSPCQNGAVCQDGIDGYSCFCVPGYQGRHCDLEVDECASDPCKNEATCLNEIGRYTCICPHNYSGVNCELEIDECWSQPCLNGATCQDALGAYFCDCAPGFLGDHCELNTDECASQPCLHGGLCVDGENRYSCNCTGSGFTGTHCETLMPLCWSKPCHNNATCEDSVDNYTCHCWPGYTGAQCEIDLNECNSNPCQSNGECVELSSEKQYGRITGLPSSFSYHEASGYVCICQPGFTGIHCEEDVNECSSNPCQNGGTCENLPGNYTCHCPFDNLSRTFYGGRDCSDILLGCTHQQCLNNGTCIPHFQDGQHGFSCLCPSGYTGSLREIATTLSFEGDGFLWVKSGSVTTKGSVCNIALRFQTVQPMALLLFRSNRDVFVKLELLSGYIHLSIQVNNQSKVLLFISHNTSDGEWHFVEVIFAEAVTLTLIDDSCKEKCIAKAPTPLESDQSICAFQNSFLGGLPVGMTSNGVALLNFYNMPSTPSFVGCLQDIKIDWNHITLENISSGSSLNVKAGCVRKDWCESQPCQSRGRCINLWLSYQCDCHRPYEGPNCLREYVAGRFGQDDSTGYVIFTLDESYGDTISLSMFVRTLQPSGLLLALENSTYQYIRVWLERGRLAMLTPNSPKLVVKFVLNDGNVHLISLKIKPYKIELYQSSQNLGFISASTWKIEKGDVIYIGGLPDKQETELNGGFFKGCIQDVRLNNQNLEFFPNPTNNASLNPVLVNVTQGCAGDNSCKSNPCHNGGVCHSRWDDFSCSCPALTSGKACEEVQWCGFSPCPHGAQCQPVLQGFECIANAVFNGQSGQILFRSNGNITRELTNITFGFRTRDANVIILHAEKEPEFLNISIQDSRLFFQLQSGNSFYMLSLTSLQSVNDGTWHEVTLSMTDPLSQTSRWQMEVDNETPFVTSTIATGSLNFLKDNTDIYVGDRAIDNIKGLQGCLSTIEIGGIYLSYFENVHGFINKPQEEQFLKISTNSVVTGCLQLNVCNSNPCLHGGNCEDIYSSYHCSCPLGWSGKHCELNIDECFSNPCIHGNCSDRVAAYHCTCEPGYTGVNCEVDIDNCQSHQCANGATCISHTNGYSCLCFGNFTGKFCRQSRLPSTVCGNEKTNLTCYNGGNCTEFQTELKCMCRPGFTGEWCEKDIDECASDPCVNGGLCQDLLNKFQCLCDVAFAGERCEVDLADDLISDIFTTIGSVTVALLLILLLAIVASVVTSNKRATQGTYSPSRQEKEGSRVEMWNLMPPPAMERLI
Experiment: co-IP; HEK293T cells co-transfected pairwise with a FLAG and an HA construct, 48 h; lysis in TBS (30 mM Tris-HCl pH 7.4, 150 mM NaCl) with 0.5% Nonidet P40; FLAG-IP on ANTI-FLAG M2 Affinity Gel 60-90 min at 4°C, elution with FLAG peptide; Western blot with HA and FLAG antibodies; for mutants HA/FLAG signal in eluates relative to WT, three biological replicates
Settings: partners not purified

percent of the interaction capacity relative to CRB1 WT: 96%
B1: Human canonical CRB2 (Crumbs homolog 2) (natural protein)
chain: not shown
notes: Crumbs homolog 2, human, cDNA NM_173689; Stood as bait (FLAG copy) and as prey (HA copy) in the pairwise co-IP matrix; each copy carries only one of the two tags; The FLAG copy was the bait of the mass spectrometry pull-downs; also called CRB2-FLAG; CRB2-HA; source: HEK293T, transfected, in lysate (co-IP); HEK293T, transfected, FLAG-IP on beads, washed and purified with 0.01% SDS (retina …)
